From patent publication US20240207382A1 (HEALTH RESEARCH, published 2024)

Molecular target: T1, mouse Factor H (FH from mouse, MyBiosource) (mouse, UniProt P06909 19-1234)
T1 construct: Bought protein, coated on microtiter wells; also called mouse FH
Assay: quantitative ELISA, mouse FH coated, GST-tagged protein (0.03125-2 µM) detected with anti-GST

T1 sequence (P06909 19-1234): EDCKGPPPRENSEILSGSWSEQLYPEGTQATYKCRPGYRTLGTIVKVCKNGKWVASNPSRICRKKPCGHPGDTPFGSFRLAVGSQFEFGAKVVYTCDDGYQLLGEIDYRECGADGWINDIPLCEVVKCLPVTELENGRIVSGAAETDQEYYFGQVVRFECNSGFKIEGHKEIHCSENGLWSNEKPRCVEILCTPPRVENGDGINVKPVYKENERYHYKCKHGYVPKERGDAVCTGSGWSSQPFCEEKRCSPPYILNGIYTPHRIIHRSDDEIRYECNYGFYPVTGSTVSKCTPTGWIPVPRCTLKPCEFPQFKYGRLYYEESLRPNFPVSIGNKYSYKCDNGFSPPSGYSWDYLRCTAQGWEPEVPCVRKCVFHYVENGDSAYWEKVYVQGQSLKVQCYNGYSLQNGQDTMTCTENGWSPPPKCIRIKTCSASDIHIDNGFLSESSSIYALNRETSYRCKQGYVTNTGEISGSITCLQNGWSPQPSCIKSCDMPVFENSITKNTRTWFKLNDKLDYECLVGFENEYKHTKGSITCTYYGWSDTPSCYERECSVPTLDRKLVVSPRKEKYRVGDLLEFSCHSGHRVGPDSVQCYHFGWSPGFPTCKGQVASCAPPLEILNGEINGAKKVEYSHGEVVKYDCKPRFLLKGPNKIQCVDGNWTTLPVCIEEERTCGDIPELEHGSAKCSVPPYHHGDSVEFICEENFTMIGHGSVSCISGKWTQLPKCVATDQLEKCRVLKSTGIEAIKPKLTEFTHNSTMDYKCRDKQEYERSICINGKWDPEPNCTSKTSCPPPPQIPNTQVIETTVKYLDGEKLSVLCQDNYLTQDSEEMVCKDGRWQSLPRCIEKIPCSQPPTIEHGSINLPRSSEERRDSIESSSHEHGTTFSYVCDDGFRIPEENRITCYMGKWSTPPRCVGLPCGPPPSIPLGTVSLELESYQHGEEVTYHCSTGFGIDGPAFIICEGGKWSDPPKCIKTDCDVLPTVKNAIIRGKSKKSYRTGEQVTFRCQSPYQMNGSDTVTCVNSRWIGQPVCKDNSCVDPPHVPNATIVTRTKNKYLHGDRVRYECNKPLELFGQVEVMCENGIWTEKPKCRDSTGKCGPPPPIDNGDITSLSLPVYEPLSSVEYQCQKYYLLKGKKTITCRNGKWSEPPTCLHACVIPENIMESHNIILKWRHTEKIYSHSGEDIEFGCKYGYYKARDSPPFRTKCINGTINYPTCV

B1: GST tagged CspZ (residue 20 to 236 of CspZ from B. burgdorferi strain B31) (other)
chain: DVSRLNQRNINELKIFVEKAKYYSIKLDAIYNECTGAYNDIMTYSEGTFSDQSKVNQAISIFKKDNKIVNKFKELEKIIEEYKPMFLSKLIDDFAIELDQAVDNDVSNARHVADSYKKLRKSVVLAYIESFDVISSKFVDSKFVEASKKFVNKAKEFVEENDLIALECIVKTIGDMVNDREINSRSRYNNFYKKEADFLGAAVELEGAYKAIKQTLL
notes: also called wild type CspZ; CRASP-2; not shown: glutathione-S-transferase (GST) tag encoded by plasmid pGEX-6P1
B1: binds.
